Substitutions are numbered along the chain they refer to.
Assays:
hCD137.1-F-G1d = target: T1, hCD137.1-F-G1d (human); test: ELISA; 500 uM kynurenine, Ab 10 ug/mL
T1 construct: Portion of the human CD137 extracellular region linked to an antibody constant region
Protocol: (§1) Whether the obtained antibodies bind to antigens having a partial sequence of CD137 was assessed by ELISA. […] After the unbound antigens were removed from the plates by washing each well of the plates with the Wash Buffer, the wells were blocked with 50 μL of Blocking Buffer (BlockAce-containing TBS) for one hour or more. To wells from which the Blocking Buffer was removed, each well was supplemented with 10 μL of the purified antibodies prepared at 10 μg/mL in TBS with a final concentration of 500 μM L-kynurenine or TBS with a final concentration of 500 μM kynurenine, and it was left at rest for one hour. AP-conjugated anti-human Kappa antibodies (BIOSOURCE) diluted in TBS with a final concentration of 500 μM kynurenine were added to each well after washing with the Wash Buffer containing a final concentration of 500 μM kynurenine (TBS with 0.1% Tween20). After one hour of incubation, the BluePhos phosphate substrate (KPL) was added after washing with Wash Buffer containing 500 μM kynurenine. Color development of the solution in each well was measured by absorbance at 620 nm after the color development reaction of the solution in each well was stopped by adding the BluePhos Stop Solution. The ratio of absorbance by setting the value of the well with an antibody concentration of 0 μg/mL to 1 is shown.

hCD137.1.2-F.G1d = target: T2, hCD137.1.2-F.G1d (human); test: ELISA; 500 uM kynurenine, Ab 10 ug/mL
T2 construct: Portion of the human CD137 extracellular region linked to an antibody constant region
Protocol: as §1

hCD137.2.3-F.G1d = target: T3, hCD137.2.3-F.G1d (human); test: ELISA; 500 uM kynurenine, Ab 10 ug/mL
T3 construct: Portion of the human CD137 extracellular region linked to an antibody constant region
Protocol: as §1

hFcgRIIb [1] = target: T4, hFcgRIIb (human, UniProt P31994 43-217); test: SPR 25C; relative to A375-G1T3/B167-Lamlib;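 also: SPR with antibody captured on an anti-human Fab-lambda chip, human FcγR analyte at 8 nM for FcγRIa or 1000 nM for the others, pH 7.4, FcγR RU per captured antibody unit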
T4 construct: extracellular domain; also called human FcγRIIb
T4 sequence (looked up): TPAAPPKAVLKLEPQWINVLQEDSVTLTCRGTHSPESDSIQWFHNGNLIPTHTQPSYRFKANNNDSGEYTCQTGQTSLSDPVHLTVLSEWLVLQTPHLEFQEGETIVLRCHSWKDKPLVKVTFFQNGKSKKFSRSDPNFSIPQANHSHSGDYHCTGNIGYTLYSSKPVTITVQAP
Protocol: (§2) Biacore T200 (GE Healthcare) was used to evaluate the binding activity to the respective human Fcγ receptor (hereafter referred to as FcγR). Measurement was performed at 25° C. using 50 mM phosphate, 150 mM NaCl, 0.05 w/v %-P20, pH 7.4 as buffer. About 1000 RU of antibody was captured using a sensor chip immobilized with CaptureSelect™ Human Fab-lambda Kinetics Biotin Conjugate (Thermo Fisher Scientific) as a molecule for ligand capturing. Human FcγR was diluted to 8 nM for FcγRIa and 1000 nM for other FcγR in the measurement buffer, and it was interacted to the captured antibody. The binding activity of each antibody to FcγR was assessed by calculating the binding amount of FcγR (RU) per unit amount of antibody using Biacore T200 Evaluation Software 2.0.

hFcgRIIIaV [2] = target: T5, hFcgRIIIaV (human, UniProt P08637 17-208); test: SPR 25C; relative to A375-G1T3/B167-Lamlib;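 also: SPR with antibody captured on an anti-human Fab-lambda chip, human FcγR analyte at 8 nM for FcγRIa or 1000 nM for the others, pH 7.4, FcγR RU per captured antibody unit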
T5 construct: extracellular domain; also called human FcγRIIIa allotype V158
Protocol: as §2

hFcgRIIaH [3] = target: T6, hFcgRIIaH (human, UniProt P12318 34-217); test: SPR 25C; relative to A375-G1T3/B167-Lamlib;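 also: SPR with antibody captured on an anti-human Fab-lambda chip, human FcγR analyte at 8 nM for FcγRIa or 1000 nM for the others, pH 7.4, FcγR RU per captured antibody unit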
T6 construct: extracellular domain; also called human FcγRIIa type H (H131)
T6 sequence (looked up): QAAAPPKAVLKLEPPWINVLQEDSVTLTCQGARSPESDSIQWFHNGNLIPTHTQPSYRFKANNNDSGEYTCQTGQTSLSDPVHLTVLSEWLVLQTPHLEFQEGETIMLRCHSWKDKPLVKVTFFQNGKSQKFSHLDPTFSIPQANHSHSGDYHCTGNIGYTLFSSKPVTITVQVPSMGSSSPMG
Protocol: as §2

hFcgRIa [4] = target: T7, hFcgRIa (human, UniProt P12314 16-292); test: SPR 25C; relative to A375-G1T3/B167-Lamlib;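 also: SPR with antibody captured on an anti-human Fab-lambda chip, human FcγR analyte at 8 nM for FcγRIa or 1000 nM for the others, pH 7.4, FcγR RU per captured antibody unit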
T7 construct: extracellular domain; also called human FcγRIa; FcγRI
Protocol: as §2

hFcgRIIaR [5] = target: T8, hFcgRIIaR (human, UniProt P12318 34-217); test: SPR 25C; relative to A375-G1T3/B167-Lamlib
T8 construct: extracellular domain; also called human FcγRIIa type R (R131)
T8 sequence (looked up): T6 sequence (looked up) with H134R
Protocol: as §2

hFcgRIIIaF [6] = target: T9, hFcgRIIIaF (human, UniProt P08637 17-208); test: SPR 25C; relative to A375-G1T3/B167-Lamlib
T9 construct: extracellular domain; also called human FcγRIIIa allotype F158
Protocol: as §2

hFcgRIIb [7] = target: T4, hFcgRIIb; test: SPR 25C
Protocol: as §2

hFcgRIIIaV [8] = target: T5, hFcgRIIIaV; test: SPR 25C
Protocol: as §2

hFcgRIIaH [9] = target: T6, hFcgRIIaH; test: SPR 25C
Protocol: as §2

hFcgRIa [10] = target: T7, hFcgRIa; test: SPR 25C
Protocol: as §2

hFcgRIIaR [11] = target: T8, hFcgRIIaR; test: SPR 25C
Protocol: as §2

hFcgRIIIaF [12] = target: T9, hFcgRIIIaF; test: SPR 25C
Protocol: as §2

human FcRn = human FcRn (human, UniProt P55899 24-290; P61769 21-119, limits assumed); test: SPR 25C pH 6.0, steady state;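 also: antibody captured on chip via anti-human Fab-lambda ligand, human FcRn injected as analyte in 50 mM phosphate buffer with 150 mM NaCl and P20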
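For binding per 1RU of antibody in this document: biacore SPR with antibody captured on an anti-human Fab lambda chip, human FcγR injected at 1000 nM (FcγRIa at 8 nM) in pH 7.4 phosphate buffer.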

T1 sequence (chain, as listed by the source limits assumed): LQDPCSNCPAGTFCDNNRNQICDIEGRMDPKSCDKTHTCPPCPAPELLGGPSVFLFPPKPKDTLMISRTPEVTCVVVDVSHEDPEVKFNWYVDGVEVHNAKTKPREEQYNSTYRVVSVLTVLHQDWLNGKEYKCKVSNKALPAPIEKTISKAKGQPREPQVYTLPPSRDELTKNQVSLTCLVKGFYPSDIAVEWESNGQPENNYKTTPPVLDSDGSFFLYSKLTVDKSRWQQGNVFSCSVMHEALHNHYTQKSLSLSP
T5 sequence (P08637 17-208 F176V): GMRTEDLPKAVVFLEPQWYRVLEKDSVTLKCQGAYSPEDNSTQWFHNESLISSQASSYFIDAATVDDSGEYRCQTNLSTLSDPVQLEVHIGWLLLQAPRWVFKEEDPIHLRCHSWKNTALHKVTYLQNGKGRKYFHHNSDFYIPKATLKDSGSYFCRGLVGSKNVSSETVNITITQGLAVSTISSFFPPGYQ
T9 sequence (P08637 17-208): as the sequence (P08637 17-208 F176V) above, with V160F counted along it
T7 sequence (P12314 16-292): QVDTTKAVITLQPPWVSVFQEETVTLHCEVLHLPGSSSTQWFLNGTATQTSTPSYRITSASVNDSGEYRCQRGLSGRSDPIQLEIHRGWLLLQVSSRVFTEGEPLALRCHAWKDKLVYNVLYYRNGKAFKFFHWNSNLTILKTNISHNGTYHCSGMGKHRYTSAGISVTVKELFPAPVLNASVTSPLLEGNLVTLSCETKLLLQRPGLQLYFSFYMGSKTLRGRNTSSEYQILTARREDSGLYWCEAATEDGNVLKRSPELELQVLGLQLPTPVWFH
T2 sequence (chain, as listed by the source limits assumed): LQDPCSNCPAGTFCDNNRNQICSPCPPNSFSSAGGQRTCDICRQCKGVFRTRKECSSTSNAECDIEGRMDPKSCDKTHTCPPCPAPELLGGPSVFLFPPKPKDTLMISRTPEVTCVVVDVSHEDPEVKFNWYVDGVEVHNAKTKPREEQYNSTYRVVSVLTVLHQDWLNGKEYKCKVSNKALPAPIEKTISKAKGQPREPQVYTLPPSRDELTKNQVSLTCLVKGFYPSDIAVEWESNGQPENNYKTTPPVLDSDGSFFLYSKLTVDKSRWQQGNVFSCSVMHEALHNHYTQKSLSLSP
T3 sequence (chain, as listed by the source limits assumed): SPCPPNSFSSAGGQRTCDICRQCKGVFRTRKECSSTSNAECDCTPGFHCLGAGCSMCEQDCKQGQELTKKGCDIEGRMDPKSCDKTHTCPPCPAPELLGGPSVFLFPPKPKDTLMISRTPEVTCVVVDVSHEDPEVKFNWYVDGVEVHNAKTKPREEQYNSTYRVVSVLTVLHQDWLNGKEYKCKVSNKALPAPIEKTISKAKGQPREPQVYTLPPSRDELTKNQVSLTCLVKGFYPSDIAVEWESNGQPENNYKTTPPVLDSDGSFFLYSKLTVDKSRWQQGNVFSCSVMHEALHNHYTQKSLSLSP
Chain of human FcRn (P55899 24-290 limits assumed, chain 1 of 2): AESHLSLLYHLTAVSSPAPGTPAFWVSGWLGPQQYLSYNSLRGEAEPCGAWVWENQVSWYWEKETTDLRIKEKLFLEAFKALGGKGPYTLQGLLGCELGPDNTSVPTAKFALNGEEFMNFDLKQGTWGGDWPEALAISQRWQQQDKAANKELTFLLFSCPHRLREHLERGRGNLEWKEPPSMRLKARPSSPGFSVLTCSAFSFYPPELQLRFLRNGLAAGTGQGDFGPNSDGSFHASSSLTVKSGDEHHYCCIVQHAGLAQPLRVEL
Chain of human FcRn (P61769 21-119 limits assumed, chain 2 of 2): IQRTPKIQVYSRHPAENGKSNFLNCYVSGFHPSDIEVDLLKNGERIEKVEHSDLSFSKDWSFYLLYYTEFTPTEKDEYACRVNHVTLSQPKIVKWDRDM

B1: dBBK026-P253 (antibody, human IgG1, kappa, V domains shown)
VH: QVQLVQSGAEVKKPGSSVKVSCKASGGEFSNYFISWVRQAPGQGLEWMGMVHPIEGWAVYAQKFQGRVTITADESTSTAYMELSSLRSEDTAVYYCARDRPVFCCPRGAFDIWGQGTLVTVSS
VL: DIVMTQSPLSLPVTPGEPASISCRSSQSLVSPGDNTFLSWYLQKPGQSPQLLIYEIERRFYGVPDRFSGSGSGTDFTLKISRVEAEDVGVYYCMQASTFPRTFGQGTKVEIKR
**Q.** Which absorbance ratio (hCD137.1-F-G1d) does the source give for B1 here?
**A.** 1

**Q.** What about the absorbance ratio (hCD137.1.2-F.G1d) of the same binder?
**A.** 1.2

**Q.** What about the absorbance ratio (hCD137.2.3-F.G1d) of the same binder?
**A.** 1.1

B2: dBBK051-P253 (antibody, human IgG1, kappa, V domains shown)
VH: QVQLVQSGAEVKKPGSSVKVSCKASGGGFSSYGISWVRQAPGQGLEWMGALFPISSQASYAQKFQGRVTITADESTSTAYMELSSLRSEDTAVYYCARDRPVDYVPHGAFDIWGQGTLVTVSS
VL: B1 VL
**Q.** For B2, which absorbance ratio (hCD137.1-F-G1d) is on record?
**A.** 1.2

**Q.** And the absorbance ratio (hCD137.1.2-F.G1d)?
**A.** 1.2

B3: dBBK060-P253 (antibody, human IgG1, kappa, V domains shown)
VH: QVQLVQSGAEVKKPGSSVKVSCKASGGDFSNYVISWVRQAPGQGLEWMGFINPIYGAAGYAQKFQGRVTITADESTSTAYMELSSLRSEDTAVYYCARDEPVASLPHGAFDIWGQGTLVTVSS
VL: B1 VL with S31D, G33W, D34G, E57S, R58N, S97K, T98D, Q105P
**Q.** B3 was tested. Which absorbance ratio (hCD137.1-F-G1d) did it give?
**A.** 1.2

**Q.** What about the absorbance ratio (hCD137.1.2-F.G1d) of the same binder?
**A.** 1.4

**Q.** And the absorbance ratio (hCD137.2.3-F.G1d)?
**A.** 1.2

B4: dBBK101-P253 (antibody, human IgG1, kappa, V domains shown)
VH: QVQLVQSGAEVKKPGSSVKVSCKASGGAFSYYLISWVRQAPGQGLEWMGFVDPIRGGAFYAQKFQGRVTITADESTSTAYMELSSLRSEDTAVYYCARDRPVNAAPRGAFDIWGQGTLVTVSS
VL: B1 VL with S31G, P32D, G33R, D34G, F37Y, E57G, R58S, R59I, S97A, T98E
**Q.** Which results are given for B4?
**A.** absorbance ratio (hCD137.1-F-G1d): 1.3; absorbance ratio (hCD137.1.2-F.G1d): 1.2

B5: A375-TT14/B167-Lamlib (antibody, human IgG1, lambda)
heavy: EVQLVESGGGLVKPGGSLRLSCAASGFTFSTFTMNWVRQAPGKGLEWVSSISSKSTYIEYADSFKVRFTISRDNAKNSLYLQMNSLRAEDTAVYYCARYGAKNFLNWVFDYWGQGTLVTVSSASTKGPSVFPLAPSSKSTSGGTAALGCLVKDYFPEPVTVSWNSGALTSGVHTFPAVLQSSGLYSLSSVVTVPSSSLGTQTYICNVNHKPSNTKVDKKVEPKSCDKTHTCPPCPAPEYLGGDSVFLFPPKPKDVLMISRTPEVTCVVIDVSHEDPEVKFNWYVDGVEVHNAKTKPREEQYNSTYRVVSVLPVLHQDWLNGKEYKCKVSNKALPKPIEKTISKAKGQPREPQVYTLPPSREEMTKNQVSLTCLVKGFYPSDIAVEWESNGQPENNYKTTPPVLDSDGSFFLYSKLTVDKSRWQQGNVFSCSVMHEALHNHYTQKSLSLSP
light: QSALTQPPSASGSPGQTVTISCTGTRYDVGYYEYVSWYQQHPGKAPKLMIYETSKRLSGVPDRFSGSKSGNTASLTVSGLQAEDEADYYCSSYRYEHQVSFGGGTKLTVLGQPKAAPSVTLFPPSSEELQANKATLVCLISDFYPGAVTVAWKADSSPVKAGVETTTPSKQSNNKYAASSYLSLTPEQWKSHRSYSCQVTHEGSTVEKTVAPTECS
notes: copies: 2 + 2
**Q.** Which results are given for B5?
**A.** relative binding amount (hFcgRIIb [1]): 7.34; relative binding amount (hFcgRIIIaV [2]): 0; relative binding amount (hFcgRIIaH [3]): 0.07; relative binding amount (hFcgRIa [4]): 0.05; relative binding amount (hFcgRIIaR [5]): 0.14; relative binding amount (hFcgRIIIaF [6]): 0; binding per 1RU of antibody (hFcgRIIb [7]): 0.0805 RU; binding per 1RU of antibody (hFcgRIIIaV [8]): 0.0003 RU; binding per 1RU of antibody (hFcgRIIaH [9]): 0.0042 RU; binding per 1RU of antibody (hFcgRIa [10]): 0.0045 RU; binding per 1RU of antibody (hFcgRIIaR [11]): 0.0067 RU; binding per 1RU of antibody (hFcgRIIIaF [12]): 0 RU; Kd (human FcRn): 1770 nM

B6: A375-TT16/B167-Lamlib (antibody, human IgG1, lambda)
heavy: B5 heavy with G242D, I269V
light: B5 light
notes: copies: 2 + 2
**Q.** How did the relative binding amount (hFcgRIIb [1]) turn out when B6 was run?
**A.** 9.94

**Q.** What about the relative binding amount (hFcgRIIIaV [2]) of the same binder?
**A.** 0

**Q.** What about the relative binding amount (hFcgRIIaH [3]) of the same binder?
**A.** 0.22

**Q.** And the relative binding amount (hFcgRIa [4])?
**A.** 0.04

**Q.** What about the relative binding amount (hFcgRIIaR [5]) of the same binder?
**A.** 0.77

**Q.** And the relative binding amount (hFcgRIIIaF [6])?
**A.** 0

**Q.** What about the “binding per 1RU of antibody” value (hFcgRIIb [7]) of the same binder?
**A.** 0.109 RU

**Q.** And the “binding per 1RU of antibody” value (hFcgRIIIaV [8])?
**A.** -0.0002 RU

**Q.** And the “binding per 1RU of antibody” value (hFcgRIIaH [9])?
**A.** 0.0126 RU

**Q.** What about the “binding per 1RU of antibody” value (hFcgRIa [10]) of the same binder?
**A.** 0.0034 RU

**Q.** And the “binding per 1RU of antibody” value (hFcgRIIaR [11])?
**A.** 0.0359 RU

**Q.** And the “binding per 1RU of antibody” value (hFcgRIIIaF [12])?
**A.** 0.0001 RU

**Q.** What about the Kd (human FcRn) of the same binder?
**A.** 1510 nM
